This data set concerns Flammulina velutipes. Kind of data set: Test for the function of Cbr sequence: growth of transformed strains on PDA plate medium containing carboxin. Format: cell-based. As to conditions: ten transformed Flammulina velutipes strains (electroporation, pMush-A-mFvCbr) cultured in PDA plate medium containing 2 mg/ml carboxin for one week. As to the method: The vector for expressing mutant Cbr sequence is pMush-A vector containing GPD promoter (pGPD) and hygromycin resistance (hyg) marker. The mutant Cbr sequence preserved in mFvCbrAMV vector (FIG. 1B) and pMush-A vector were sliced with BamH I and Spe I, respectively. The mutant Cbr sequence (mFvCbr) was ligated to the corresponding sites in pMush-A vector using T4 DNA ligase. The constructed vector is called pMush-A-mFvCbr (FIG. 2B).
The mycelia of Flammulina velutipes were cultured in PDB medium at 25° C. for 1-2 weeks. The resulting mycelia were disrupted by a homogenizator and then treated with lysing enzyme solution containing lysing enzyme (Sigma, St. Louis, Mo., U.S.A.), mannitol and potassium phosphate buffer. The resulting mycelial fragments were dissolved in 100 μl electroporation buffer solution as the competent cells used in the electroporation. The well-prepared competent cells were added to the mutant Cbr DNA solution obtained from Example 2 and then placed on ice for 10 minutes. An electroporation was conducted for the resulting solution using Electro Cell Manipulator ECM 630 Electroporation System (BTX, San Diego, Calif., U.S.A.) to obtain transformed mycelia. […] Ten transformed strains were selected and cultured in PDA plate medium containing 2 mg/ml carboxin for one week. […]

Consider one molecule from patent publication US20100136664A1, “CARBOXIN […] FOR FLAMMULINA VELUTIPES” (MYCOMAGIC BIOTECHNOLOGY CO., LTD., priority 2008, published 2010).

B1: mutant Cbr DNA: Flammulina velutipes succinate dehydrogenase iron-sulfur protein gene with point mutation His238 to Leu (CAC→CTC), SEQ ID NO: 1 (nucleic acid)
DNA: ATGCAGTCCGTCGCCCGTCGTTTCTCTGCCGCCGCCGTGCGCCGTAGCTTTTCTACCACTTCTGTCGCGTTCCAGGCTACACCGCTCGAGAAGCCCGTGCTGAACAAGGAATTCAAGATTTACCGCTGGAATCCTGATGAGCCGGAGAAGAAACCGACGCTACAGAGCTACATAATCGACCTGAACCAGACAGGGCCAATGATTCTGGATGCTCTCATCAAGATTAAAAACGAAATCGACCCTACGCTTACCTTCAGACGAAGTTGTCGCGAGGGCATTTGCGGATCTTGTGCGAGAAAAATCGACGGGCAGAACACGTTGGCCTGTCTCTGCAGGATTGATAGGAATGCTGGGAAGGATTCGAAGATCTATCCCTTACCACACAGTGAGTGTCTCATCTGAGCTCTGCGTATCTGAGTGCTAACTTAGATTCCAGTGTACATCGTCAAGGACCTCGTACCGGATCTCACCTACTTCTACAAGCAGTACAAGTCTATCCAACCATACCTTCAGAACGACAACCCACCTGCGTCAGGTCTGTTCATTATTTTGCACCCTCCCCTTTGCTCGGCTTACCGAATCGCTTCTAGGTGAATTCCTCCAAACGCAAGATGACCGCAAGAAGCTCGACGGACTCTACGAGTGTATCCTTTGCGCGTGTTGTTCGACGTCTTGCCCTTCGTATTGGTGGAACCAAGACGAATACCTTGGACCCGCTACTTTGATGCAAGCATATCGCTGGATCGCCGACTCGAGAGTACGTTCTGCTCGTCGTATCATGTTTTATCTCATACTGATATACTCTTAGGACTCTTATGCCGCAGAACGCAAGGAAAAGCTCCAAAACGAGATGAGCATGTACCGATGCCTCACTATCTTCAACTGCTCGCGGACATGCCCCAAGGGTCTCAACCCCGCTGCCGCCATCGCGAAAATCAAGCTTGAGCTTGCGGCCGAGTAA
modifications: Flammulina velutipes
As to B1, the “growth of transformed strains in PDA plate medium containing carboxin (carboxin resistance)” value is “Four strains grew”.
